According to patent US20220009996A1 (NORTHWESTERN UNIVERSITY, published 2022):

What was measured:
[1] = molecular target: T1, Recombinant Human VCAM-1/CD106 Fc chimera protein (R&D Systems) (human, UniProt P19320 25-698); test: bio-layer interferometry (BLItz): VCAM-1 Fc chimera immobilised on an Anti-Penta-HIS biosensor, PA nanofibers in DPBS as analyte, 300 s association and 300 s dissociation
T1 construct: Bought from R&D Systems; also called VCAM-1 protein; not shown: Fc part (and any linker or His tag) of the bought chimera is not described
T1 sequence (looked up): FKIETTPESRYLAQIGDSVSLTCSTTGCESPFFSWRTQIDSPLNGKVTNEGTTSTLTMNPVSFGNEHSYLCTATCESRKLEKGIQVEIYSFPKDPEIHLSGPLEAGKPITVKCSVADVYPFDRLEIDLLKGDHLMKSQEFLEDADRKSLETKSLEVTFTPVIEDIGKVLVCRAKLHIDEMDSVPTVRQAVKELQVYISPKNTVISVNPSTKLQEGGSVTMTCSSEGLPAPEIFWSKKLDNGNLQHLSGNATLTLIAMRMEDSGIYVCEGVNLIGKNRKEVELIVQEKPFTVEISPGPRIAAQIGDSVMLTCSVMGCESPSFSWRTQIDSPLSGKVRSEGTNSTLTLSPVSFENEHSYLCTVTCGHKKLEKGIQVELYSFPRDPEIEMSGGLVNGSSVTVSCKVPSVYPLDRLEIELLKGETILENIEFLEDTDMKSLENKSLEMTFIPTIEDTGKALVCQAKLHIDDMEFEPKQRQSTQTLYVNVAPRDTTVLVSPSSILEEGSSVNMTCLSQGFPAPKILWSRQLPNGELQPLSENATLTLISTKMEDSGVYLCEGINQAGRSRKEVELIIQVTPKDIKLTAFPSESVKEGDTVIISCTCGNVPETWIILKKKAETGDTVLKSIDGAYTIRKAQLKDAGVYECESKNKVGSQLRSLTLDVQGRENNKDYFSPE

[2] = molecular target: T1, Recombinant Human VCAM-1/CD106 Fc …; test: BLI (BLItz), VCAM-1 Fc chimera immobilized on Anti-Penta-HIS biosensor, serial dilutions of PA nanofibers

B1: VCAMb-scr PA (C16V3A3E3GSGQHPHVK) nanofibers (peptide)
peptide: VVVAAAEEEGSGQHPHVK
HELM: PEPTIDE1{[CCCCCCCCCCCCCCCC(=O)[*:2]].V.V.V.A.A.A.E.E.E.G.S.G.Q.H.P.H.V.K.[am]}$$$$V2.0
SMILES: CCCCCCCCCCCCCCCC(=O)N[C@H](C(=O)N[C@H](C(=O)N[C@H](C(=O)N[C@@H](C)C(=O)N[C@@H](C)C(=O)N[C@@H](C)C(=O)N[C@@H](CCC(=O)O)C(=O)N[C@@H](CCC(=O)O)C(=O)N[C@@H](CCC(=O)O)C(=O)NCC(=O)N[C@@H](CO)C(=O)NCC(=O)N[C@@H](CCC(N)=O)C(=O)N[C@@H](Cc1c[nH]cn1)C(=O)N1CCC[C@H]1C(=O)N[C@@H](Cc1c[nH]cn1)C(=O)N[C@H](C(=O)N[C@@H](CCCCN)C(N)=O)C(C)C)C(C)C)C(C)C)C(C)C
notes: formed relatively short, closely packed fibers; also called scrambled control PA
[1]
  binding result: no binding (tested: 100 µM)

B2: VCAM-1 binding PA (C16V3A3E3GSGVHPKQH) nanofibers (peptide)
peptide: VVVAAAEEEGSGVHPKQH
HELM: PEPTIDE1{[CCCCCCCCCCCCCCCC(=O)[*:2]].V.V.V.A.A.A.E.E.E.G.S.G.V.H.P.K.Q.H.[am]}$$$$V2.0
SMILES: CCCCCCCCCCCCCCCC(=O)N[C@H](C(=O)N[C@H](C(=O)N[C@H](C(=O)N[C@@H](C)C(=O)N[C@@H](C)C(=O)N[C@@H](C)C(=O)N[C@@H](CCC(=O)O)C(=O)N[C@@H](CCC(=O)O)C(=O)N[C@@H](CCC(=O)O)C(=O)NCC(=O)N[C@@H](CO)C(=O)NCC(=O)N[C@H](C(=O)N[C@@H](Cc1c[nH]cn1)C(=O)N1CCC[C@H]1C(=O)N[C@@H](CCCCN)C(=O)N[C@@H](CCC(N)=O)C(=O)N[C@@H](Cc1c[nH]cn1)C(N)=O)C(C)C)C(C)C)C(C)C)C(C)C
notes: Peptide amphiphile, self-assembled into supramolecular nanofibers after annealing; tested as nanofibers, so the number of copies in one assembly is not defined; In the microfluidic assay it stood as a coating on lymphocytes; also called VCAMb PA; VCAM-1 targeting PA
[2]
  Kd: 280 nM

B3: backbone PA (C16V3A3E3) nanofibers (peptide)
peptide: VVVAAAEEE
HELM: PEPTIDE1{[CCCCCCCCCCCCCCCC(=O)[*:2]].V.V.V.A.A.A.E.E.E.[am]}$$$$V2.0
SMILES: CCCCCCCCCCCCCCCC(=O)N[C@H](C(=O)N[C@H](C(=O)N[C@H](C(=O)N[C@@H](C)C(=O)N[C@@H](C)C(=O)N[C@@H](C)C(=O)N[C@@H](CCC(=O)O)C(=O)N[C@@H](CCC(=O)O)C(=O)N[C@@H](CCC(=O)O)C(N)=O)C(C)C)C(C)C)C(C)C
notes: Peptide amphiphile without targeting moiety, self-assembled into nanofibers; also called filler PA; non-bioactive backbone PA
[1]
  binding result: no binding (tested: 100 µM)
